Test results from the supplement of paper PMC11316812.
± gives the standard deviation of the averaged measurements.

Legend:
[1] = tested on: MCF7; assay: percentage of EdU-negative (G0-arrested) nuclei per well, 72 h; higher = more G0 arrest; details: reference: sequence is the full UniProt precursor, the tested protein was the secreted form or ectodomain
[2] = tested on: hTERT-HMEC; assay: as above; details: reference: sequence is the full UniProt precursor, the tested protein was the secreted form or ectodomain
[3] = protein concentration 0.0076025 µM
[4] = protein concentration 0.076025 µM
[5] = protein concentration 0.03125 µM
[6] = protein concentration 0.3125 µM
[7] = protein concentration 0.0225 µM
[8] = protein concentration 0.0231125 µM
[9] = protein concentration 0.231125 µM
[10] = protein concentration 0.0197775 µM
[11] = protein concentration 0.197775 µM
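Note: secreted proteins added to cultured cells, EdU pulse at the end, nuclei found by Hoechst imaging, EdU status from nuclear versus surrounding ring intensity ratio, PBS as neutral control.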

MALGQKLFITMSRGAGRLQGTLWALVFLGILVGMVVPSPAGTRANNTLLDSRGWGTLLSRSRAGLAGEIAGVNWESGYLVGIKRQRRLYCNVGIGFHLQVLPDGRISGTHEENPYSLLEISTVERGVVSLFGVRSALFVAMNSKGRLYATPSFQEECKFRETLLPNNYNAYESDLYQGTYIALSKYGRVKRGSKVSPIMTVTHFLPRI
percentage of EdU-negative [1, 3]: 25.3 ± 0.82%
percentage of EdU-negative [1, 4]: 25 ± 2.6%
percentage of EdU-negative [2, 3]: 4.73 ± 0.69%
percentage of EdU-negative [2, 4]: 5.27 ± 0.17%

MALGVPISVYLLFNAMTALTEEAAVTVTPPITAQQGNWTVNKTEADNIEGPIALKFSHLCLEDHNSYCINGACAFHHELEKAICRCFTGYTGERCEHLTLTSYAVDSYEKYIAIGIGVGLLLSGFLVIFYCYIRKRCLKLKSPYNVCSGERRPL
percentage of EdU-negative [1, 5]: 26.2 ± 0.87%
percentage of EdU-negative [1, 6]: 27 ± 2.6%
percentage of EdU-negative [2, 5]: 5.25 ± 0.34%
percentage of EdU-negative [2, 6]: 5.12 ± 0.77%

MALHIHEACILLLVIPGLVTSAAISHEDYPADEGDQISSNDNLIFDDYRGKGCVDDSGFVYKLGERFFPGHSNCPCVCALDGPVCDQPECPKIHPKCTKVEHNGCCPECKEVKNFCEYHGKNYKILEEFKPSPCEWCRCEPSNEVHCVVADCAVPECVNPVYEPEQCCPVCKNGPNCFAGTTIIPAGIEVKVDECNICHCHNGDWWKPAQCSKRECQGKQTV [B2RUY7]
percentage of EdU-negative [1, 7]: 26.9 ± 1.9%
percentage of EdU-negative ([1]; protein concentration 0.225 µM): 25.9 ± 1.7%
percentage of EdU-negative [2, 7]: 5.12 ± 0.14%
percentage of EdU-negative ([2]; protein concentration 0.225 µM): 5.63 ± 0.95%

MALLFSLILAICTRPGFLASPSGVRLVGGLHRCEGRVEVEQKGQWGTVCDDGWDIKDVAVLCRELGCGAASGTPSGILYEPPAEKEQKVLIQSVSCTGTEDTLAQCEQEEVYDCSHDEDAGASCENPESSFSPVPEGVRLADGPGHCKGRVEVKHQNQWYTVCQTGWSLRAAKVVCRQLGCGRAVLTQKRCNKHAYGRKPIWLSQMSCSGREATLQDCPSGPWGKNTCNHDEDTWVECEDPFDLRLVGGDNLCSGRLEVLHKGVWGSVCDDNWGEKEDQVVCKQLGCGKSLSPSFRDRKCYGPGVGRIWLDNVRCSGEEQSLEQCQHRFWGFHDCTHQEDVAVICSG
percentage of EdU-negative [1, 8]: 24.9 ± 0.77%
percentage of EdU-negative [1, 9]: 27.1 ± 0.67%
percentage of EdU-negative [2, 8]: 5.21 ± 0.98%
percentage of EdU-negative [2, 9]: 5.51 ± 0.056%

MALLPVLFLVTVLLPSLPAEGKDPAFTALLTTQLQVQREIVNKHNELRKAVSPPASNMLKMEWSREVTTNAQRWANKCTLQHSDPEDRKTSTRCGENLYMSSDPTSWSSAIQSWYDEILDFVYGVGPKSPNAVVGHYTQLVWYSTYQVGCGIAYCPNQDSLKYYYVCQYCPAGNNMNRKNTPYQQGTPCAGCPDDCDKGLCTNSCQYQDLLSNCDSLKNTAGCEHELLKEKCKATCLCENKIY
percentage of EdU-negative [1, 5]: 26.4 ± 1.6%
percentage of EdU-negative [1, 6]: 25 ± 1.1%
percentage of EdU-negative [2, 5]: 5.26 ± 0.72%
percentage of EdU-negative [2, 6]: 6.12 ± 1.6%

MALLWGLLVLSWSCLQGPCSVFSPVSAMEPLGRQLTSGPNQEQVSPLTLLKLGNQEPGGQTALKSPPGVCSRDPTPEQTHRLARAMMAFTADLFSLVAQTSTCPNLILSPLSVALALSHLALGAQNHTLQRLQQVLHAGSGPCLPHLLSRLCQDLGPGAFRLAARMYLQKGFPIKEDFLEQSEQLFGAKPVSLTGKQEDDLANINQWVKEATEGKIQEFLSGLPEDTVLLLLNAIHFQGFWRNKFDPSLTQRDSFHLDEQFTVPVEMMQARTYPLRWFLLEQPEIQVAHFPFKNNMSFVVLVPTHFEWNVSQVLANLSWDTLHPPLVWERPTKVRLPKLYLKHQMDLVATLSQLGLQELFQAPDLRGISEQSLVVSGVQHQSTLELSEVGVEAAAATSIAMSRMSLSSFSVNRPFLFFIFEDTTGLPLFVGSVRNPNPSAPRELKEQQDSPGNKDFLQSLKGFPRGDKLFGPDLKLVPPMEEDYPQFGSPK
percentage of EdU-negative [1, 10]: 24.1 ± 0.71%
percentage of EdU-negative [1, 11]: 29.1 ± 1.3%
percentage of EdU-negative [2, 10]: 4.44 ± 1.1%
percentage of EdU-negative [2, 11]: 10.5 ± 1%
